The source of these data is PMC9876287, “Characterization of a new CCCTC-binding factor binding site as a dual regulator of Epstein-Barr virus latent infection”.

By Kd is commonly meant the concentration at which binding is half-saturated.

This data set has as its target T1, CTCF (UniProt P49711 1-727).
T1 sequence: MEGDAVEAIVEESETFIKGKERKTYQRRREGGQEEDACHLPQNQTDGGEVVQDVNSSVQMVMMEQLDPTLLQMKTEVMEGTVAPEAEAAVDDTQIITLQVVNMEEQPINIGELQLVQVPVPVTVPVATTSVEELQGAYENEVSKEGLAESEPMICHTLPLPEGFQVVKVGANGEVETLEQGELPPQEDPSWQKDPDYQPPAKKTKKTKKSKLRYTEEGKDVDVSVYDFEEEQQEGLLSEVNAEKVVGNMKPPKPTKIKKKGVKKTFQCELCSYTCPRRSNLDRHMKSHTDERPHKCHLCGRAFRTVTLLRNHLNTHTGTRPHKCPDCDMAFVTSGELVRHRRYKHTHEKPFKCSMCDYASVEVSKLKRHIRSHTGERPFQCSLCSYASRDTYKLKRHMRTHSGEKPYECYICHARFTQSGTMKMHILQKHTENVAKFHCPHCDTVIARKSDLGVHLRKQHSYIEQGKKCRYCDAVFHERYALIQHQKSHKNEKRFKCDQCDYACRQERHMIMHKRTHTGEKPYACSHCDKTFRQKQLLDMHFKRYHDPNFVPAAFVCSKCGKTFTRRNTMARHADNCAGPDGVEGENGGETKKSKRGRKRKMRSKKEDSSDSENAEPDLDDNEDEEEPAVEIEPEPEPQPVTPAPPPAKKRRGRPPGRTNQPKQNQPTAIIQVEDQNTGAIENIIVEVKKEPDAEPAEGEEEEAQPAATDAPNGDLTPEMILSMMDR
The data set can be described thus: MST; sonicated salmon sperm DNA competitor (2000 ng); MST: 125 nM DNA, 0-12.5 uM protein, 1X EMSA buffer (from 4X: 100 mM KCl, 20 mM HEPES pH 8.0, 0.2 mM EDTA, 20% glycerol) with 1 mM DTT (fresh), salmon sperm DNA; 60 min on ice. As to conditions: protein: recombinant; tags: His; label: 5' FAM (5-carboxyfluorescein) on forward strand; blunt.

B1: Wt S13 49-mer (dsDNA)
DNA 1: TTTGTTAATCTTTAGTGGGAACTAGTGGGAGTGCTGTGCCTCGGGTACC
DNA 2: GGTACCCGAGGCACAGCACTCCCACTAGTTCCCACTAAAGATTAACAAA
Consider B1, for which the Kd came out at 4.8 ± 2.3 µM.
